PMC11289891, “Selection and characterization of a peptide-based complement modulator targeting C1 of the innate immune system†” (RSC Chemical Biology, 2024)
Positions of bridges follow the written chain, without caps; N, C: chain ends.

Molecular target: T1, C1q (full-length; ligand binding and scaffolding part of the C1 complex) (human (endogenous in human serum), UniProt P02745 23-245; P02746 28-253; P02747 29-245)
T1 construct: complement C1q subunit A, human; complement C1q subunit B, human; complement C1q subunit C, human; In serum and in the bought C1 protein C1q stands in the C1 complex with the proteases C1r and C1s (C1r2s2); in the ELISAs it was detected with anti-C1q; also called gC1q (globular head domain of full-length C1q); source: endogenous, normal human serum (Complement Technology); purified C1 protein …
Assay: ELISA; titration of purified cL3-Bt bound to streptavidin-coated plates, 1% normal human serum in RPMI, 37 °C 1 hour, C1q detected with rabbit anti-C1q
Settings: one partner purified

T1 sequence (P02745 23-245, chain 1 of 3): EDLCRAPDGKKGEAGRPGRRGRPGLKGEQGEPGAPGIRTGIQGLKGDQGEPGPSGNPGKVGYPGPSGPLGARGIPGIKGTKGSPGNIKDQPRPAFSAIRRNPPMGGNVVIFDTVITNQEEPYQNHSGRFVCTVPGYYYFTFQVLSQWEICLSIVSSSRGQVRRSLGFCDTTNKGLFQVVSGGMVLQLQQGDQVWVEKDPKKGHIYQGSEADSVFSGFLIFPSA
T1 sequence (P02746 28-253, chain 2 of 3): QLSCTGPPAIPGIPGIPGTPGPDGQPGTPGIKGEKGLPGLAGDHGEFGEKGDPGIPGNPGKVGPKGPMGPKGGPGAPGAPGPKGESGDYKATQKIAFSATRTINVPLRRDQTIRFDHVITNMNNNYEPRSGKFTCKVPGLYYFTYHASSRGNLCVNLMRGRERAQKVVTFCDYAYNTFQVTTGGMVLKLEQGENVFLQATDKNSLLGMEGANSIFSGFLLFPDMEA
T1 sequence (P02747 29-245, chain 3 of 3): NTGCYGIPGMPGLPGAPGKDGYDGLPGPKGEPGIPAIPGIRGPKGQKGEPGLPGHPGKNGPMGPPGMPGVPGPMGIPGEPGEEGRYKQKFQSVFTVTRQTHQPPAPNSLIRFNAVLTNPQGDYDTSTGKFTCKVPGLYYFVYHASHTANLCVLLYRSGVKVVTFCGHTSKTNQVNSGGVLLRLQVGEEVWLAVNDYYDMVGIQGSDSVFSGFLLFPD

{CH2CO}-YTVTFYPDPFTLQFIACGS-{K(biotin)} (thioether N-17) [cyclic-L3, biotinylated (cL3-Bt)]
EC50: ~6 µM
